Patent publication US20220281966A1
One block for each binder: values may come before it.

Molecular target: IL-13 (human IL-13, preparation not specified) (human) (UniProt P35225)
Assay: cell-based or functional assay

Sequence of IL-13 (human IL-13, preparation not specified) (human) (P35225 35-146 limits assumed): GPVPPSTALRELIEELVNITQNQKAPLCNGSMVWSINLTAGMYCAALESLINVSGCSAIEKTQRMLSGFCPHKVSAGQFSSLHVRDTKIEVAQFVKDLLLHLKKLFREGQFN

- IC50, Eotaxin-1 assay, Average: 131 pM
- IC50, Eotaxin-1 assay, n = 1: 128 pM
- IC50, Eotaxin-1 assay, n = 2: 147 pM
- IC50, Eotaxin-1 assay, n = 3: 119 pM
B1: human IL-13 receptor α2/Fc (Fc fusion, UniProt Q14627 27-343, looked up, not shown: a dimerising Fc or GST)
chain: DTEIKVNPPQDFEIVDPGYLGYLYLQWQPPLSLDHFKECTVEYELKYRNIGSETWKTIITKNLHYKDGFDLNKGIEAKIHTLLPWQCTNGSEVQSSWAETTYWISPQGIPETKVQDMDCVYYNWQYLLCSWKPGIGVLLDTNYNLFYWYEGLDHALQCVDYIKADGQNIGCRFPYLEASDYKDFYICVNGSSENKPIRSSYFTFQLQNIVKPLPPVYLTFTRESSCEIKLKWSIPLGPIPARCFDYEIEIREDDTTLVTATVENETYTLKTTNETRQLCFVVRSKVNIYCSDDGIWSEWSDKQCWEGEDLSKKTLLR

- IC50, Eotaxin-1 assay, Average: 32 pM
- IC50, Eotaxin-1 assay, n = 1: 29 pM
- IC50, Eotaxin-1 assay, n = 2: 39 pM
- IC50, Eotaxin-1 assay, n = 3: 29 pM
B2: murine IL-13 receptor α2/FC (Fc fusion, UniProt O88786 22-334, looked up, not shown: a dimerising Fc or GST)
chain: LEIKVNPPQDFEILDPGLLGYLYLQWKPPVVIEKFKGCTLEYELKYRNVDSDSWKTIITRNLIYKDGFDLNKGIEGKIRTHLSEHCTNGSEVQSPWIEASYGISDEGSLETKIQDMKCIYYNWQYLVCSWKPGKTVYSDTNYTMFFWYEGLDHALQCADYLQHDEKNVGCKLSNLDSSDYKDFFICVNGSSKLEPIRSSYTVFQLQNIVKPLPPEFLHISVENSIDIRMKWSTPGGPIPPRCYTYEIVIREDDISWESATDKNDMKLKRRANESEDLCFFVRCKVNIYCADDGIWSEWSEEECWEGYTGPDSK
